{
  "source": "paper PMC10148159",
  "about": "“Visualizing the coordination of apurinic/apyrimidinic endonuclease (APE1) and DNA polymerase β during base excision repair”",
  "binders": {"B1": {"name": "undamaged DNA 25-mer (dsDNA)", "DNA 1": "TGTGTGGAATACAGTGAGCGCAACG", "DNA 2": "CGTTGCGCTCACTGTATTCCACACA"}, "B2": {"name": "1-nt gap 25-mer (dsDNA)", "DNA 1": "TGTGTGGAATACAGTGAGCGCAACG", "DNA 2": "CGTTGCGCTCA", "DNA 3": "TGTATTCCACACA", "modifications": "5'-phosphate on 13-mer"}, "B3": {"name": "3' nick 25-mer (dsDNA)", "DNA 1": "TGTGTGGAATACAGTGAGCGCAACG", "DNA 2": "CGTTGCGCTCAC", "DNA 3": "TGTATTCCACACA", "modifications": "5'-phosphate on 13-mer; 3'-OH on 12-mer"}},
  "key": {"APE1 [1]": {"target": "T1, APE1 (Homo sapiens, UniProt P27695 1-318)", "test": "single-molecule TIRF; 2.5 mM EDTA; mean lifetime T2 22.8 s; 50 mM Hepes pH 7.4, 150 mM NaCl, 0.1 mg/ml BSA, 0.8% glucose, 2.5 mM EDTA, ~10 mM Trolox, catalase 0.04 mg/ml, glucose oxidase 1 mg/ml; room temperature; protein 0.1 nM (binary) or 1.5 nM each (ternary)", "conditions": "protein: recombinant; tags: Cy3 NHS ester dye (about 2.1-2.4 labels per protein); label: 5'-biotin on strand 1 (immobilized); blunt"}, "APE1 [2]": {"target": "T1, APE1", "test": "single-molecule TIRF; 2.5 mM EDTA; mean lifetimes T2 4.3 s, T3 30.9 s; 50 mM Hepes pH 7.4, 150 mM NaCl, 0.1 mg/ml BSA, 0.8% glucose, 2.5 mM EDTA, ~10 mM Trolox, catalase 0.04 mg/ml, glucose oxidase 1 mg/ml; room temperature; protein 0.1 nM (binary) or 1.5 nM each (ternary)", "conditions": "protein: recombinant; tags: Cy3 NHS ester dye (about 2.1-2.4 labels per protein); label: 5'-biotin on strand 1 (immobilized); blunt outer ends; 1-nt gap opposite G of template"}, "[3]": {"target": "T2, DNA polymerase beta (Pol β) (Homo sapiens, UniProt P06746 1-335)", "test": "single-molecule TIRF; 2.5 mM EDTA; mean lifetime T2 19.8 s; 50 mM Hepes pH 7.4, 150 mM NaCl, 0.1 mg/ml BSA, 0.8% glucose, 2.5 mM EDTA, ~10 mM Trolox, catalase 0.04 mg/ml, glucose oxidase 1 mg/ml; room temperature; protei"}, "APE1 [4]": {"target": "T1, APE1", "test": "single-molecule TIRF; 2.5 mM EDTA; mean lifetime T2 12.4 s; 50 mM Hepes pH 7.4, 150 mM NaCl, 0.1 mg/ml BSA, 0.8% glucose, 2.5 mM EDTA, ~10 mM Trolox, catalase 0.04 mg/ml, glucose oxidase 1 mg/ml; room temperature; protein 0.1 nM (binary) or 1.5 nM each (ternary)", "conditions": "protein: recombinant; tags: Cy3 NHS ester dye (about 2.1-2.4 labels per protein); label: 5'-biotin on strand 1 (immobilized); blunt outer ends; nicked"}, "[5]": {"target": "T2, DNA polymerase beta (Pol β)", "test": "single-molecule TIRF; 2.5 mM EDTA; mean lifetimes T2 7.4 s, T3 33.7 s; 50 mM Hepes pH 7.4, 150 mM NaCl, 0.1 mg/ml BSA, 0.8% glucose, 2.5 mM EDTA, ~10 mM Trolox, catalase 0.04 mg/ml, glucose oxidase 1 mg/ml; room temperature; protei"}},
  "data": [
    {"binder": "B1", "values": [
      {"measurement": "binding result", "setting": "APE1 [1]", "result": "binds"}
    ]},
    {"binder": "B2", "values": [
      {"measurement": "binding result", "setting": "APE1 [2]", "result": "binds"},
      {"measurement": "binding result", "setting": "[3]", "result": "binds"}
    ]},
    {"binder": "B3", "values": [
      {"measurement": "binding result", "setting": "APE1 [4]", "result": "binds"},
      {"measurement": "binding result", "setting": "[5]", "result": "binds"}
    ]}
  ]
}
